Results: patent publication US20240368566A1, “PYK2-DERIVED PEPTIDES FOR INHIBITING INVADOPODIA-MEDIATED CANCER METASTASIS” (BAR-ILAN UNIVERSITY, priority 2023, published 2024)
Entries after “also recorded” stand apart in the source; their conditions may differ. Where no end group is shown, it is not given here.

Tests used:
[1] = molecular target: T1, cortactin SH3 domain (Mus musculus, UniProt Q60598); test: NMR affinity determination, binding of peptides to purified cortactin-SH3; conditions: for loss of affinity: mutant versus Pyk2-PRR2
T1 construct: nucleotides1468-1641); 6xHis (N, cleaved yes); made in house; host or cells: E. coli BL21 (DE3)
Method: The DNA sequence encoding the SH3 domain of the mouse cortactin SH3 domain (GenBank ID U03184; nucleotides1468-1641) was sub-cloned into a pET-28a plasmid (Novagen, Merck) in frame with the cleavable N-terminal 6×His tag. Isotopically labeled cortactin-SH3 for heteronuclear NMR experiments was expressed in transformed E. coli BL21 cells (DE3) grown in the presence of kanamycin (50 mg/1) and chloramphenicol (34 mg/1) at 37° C. in M9 minimal medium. For ^15N (^13C) labeling the medium contained 1 g/L of ^15NH4Cl (4 g/L ^13C6-glucose), and 0.25 g/l of appropriately labeled Celtone Base Powder (Cambridge Isotope Laboratories, Andover, MA) was added. For triple-labeled ^2H,^13C,^15N—SH3, expression began in 100 ml of the above medium grown to an OD600 of 0.4-0.5 and gently centrifuged. Pellets were then resuspended in 500 ml filter-sterilized D20-based ^15N-M9 supplemented with ^2H7-^13C6-glucose (2 g/1) and DCN-Isogro (0.25 g/1) to reach a final OD600 of −0.1. In both cases cells were then grown at 37° C. and induced with 0.5 mM isopropyl β-D-1-thiogalactopyranoside (IPTG) upon reaching OD600-0.8, followed by overnight growth at 27° C. To purify the SH3 domain, cells were harvested by centrifugation, subjected to a single freeze-thaw cycle, and resuspended in lysis buffer (50 mM NaPi pH 8.0, 300 mM NaCl, 1 mM dithiothreitol (DTT), 100 ml per liter of culture) supplemented with 1 tablet EDTA-free protease inhibitor cocktail (Merck) and benzamidine (5 mM). Cells were lysed by French press, followed by addition of benzamidine (final concentration 10 mM) and phenylmethylsulfonyl fluoride (PMSF, 1 mM), and the lysate was clarified by centrifugation. The supernatant was loaded on a HisTrap HP column (GE Healthcare, Chicago, IL, USA) equilibrated with lysis buffer and the protein eluted through a gradient (Buffer B: 50 mM NaPi pH 8.0, 100 mM NaCl, 300 mM imidazole, 1 mM DTT). To the fraction eluting at ˜40% B purified tobacco etch virus (TEV) protease (1:30 mol:mol) was added, and the mixture dialyzed overnight at 4° C. against dialysis buffer (50 mM NaPi at pH 8.0, 100 mM NaCl, 1 mM DTT). The dialysate was brought to a final concentration of ˜5 mM imidazole, filtered, and loaded onto a HisTrap column. The collected flowthrough was dialyzed against 20 mM Tris (pH 7.5), 1 mM DTT for 3 h to reach a final concentration of 10 mM NaCl. […]
Purified SH3 was dialyzed against NMR sample buffer (30 mM NaPi, pH ˜6.5) and concentrated to the desired concentration in an Amicon concentration tube (3 kDa MWCO) (Merck). […] For quantitative titrations, purchased peptides were dissolved in 100-300 μl NMR sample buffer, and samples at varying (SH3:PRR2 1:0-1:6, SH3 concentration constant at 0.1 mM) ratios were prepared. Fittings were performed with 5-6 measured points. […]

[2] = system: MDA-MB-231 cells; test: 2D single-cell random migration assay; format: cell-based, human; conditions: highest (higher) peptide concentration; 12 hours; compared to control peptide; data not shown
Method: The 2D single-cell random migration assay was performed as previously described in Genna et al. Pyk2 and FAK differentially regulate invadopodia formation and function in breast cancer cells. J Cell Biol 2018; 217: 375-395. In brief, 6-well microtiter plates were coated with 10 μg/ml fibronectin and blocked with 1% denatured BSA. Peptide pre-treated cells were plated at 20,000 cells/well in DMEM/10% FBS containing peptides and allowed to adhere for 12-16 h. Plates were placed in a 37° C. heated chamber, and images were collected using the IncuCyte® Zoom platform (Essen Bioscience, Ann Arbor, MI, USA; 20×, NA 0.60, air objective). Phase images were collected every one hour for a total of 12 h using the IncuCyte® acquisition software. Trajectory plots, accumulated distance (total cell path length), Euclidean distance (the shortest distance between the starting point and endpoint of migration), and velocity were calculated using the chemotaxis and migration tool (ibidi GMBH, Grafelfing, Germany).

[3] = system: MDA-MB-231 cells; test: Invadopodium precursor formation assay; format: cell-based, human; conditions: at higher peptide concentrations
Method: The invadopodium precursor formation assay was performed as described in Genna et al., 2018 (supra). Briefly, gelatin was conjugated to Alexa 405 dye (Thermo Fisher Scientific). MatTek dishes were treated with 1 N HCl and coated with 50 μg/ml poly-L-lysine. A 0.2% gelatin solution was prepared in PBS, and a 1:20 mixture of Alexa 405-labeled gelatin/unlabeled gelatin was warmed to 37° C. before addition to the poly-L-lysine coated plates. Gelatin was cross-linked with 0.01% glutaraldehyde followed by quenching with 5 mg/ml sodium borohydride. 125,000 MDA-MB-231 cells were plated on Alexa 405-labeled gelatin plates in the presence of 0.1, 1, or 5 μM of Pyk2-PRR peptides or scrambled control for 4 h. At the end of incubation, cells were fixed in 3.7% paraformaldehyde, permeabilized with 0.1% Triton X-100, blocked with 1% FBS, 1% BSA in PBS, and labeled with anti-Tks5 and anti-cortactin. Images were acquired using an inverted fluorescent microscope (Leica AF6000; 63×, NA 1.4, oil objective, Leica LAS AF acquisition software) (Wetzlar, Germany) equipped with an ORCA-Flash 4.0 V2 digital CMOS camera (Hamamatsu Photonics, Shizuoka, Japan).

[4] = system: MDA-MB-231 cells; test: 3D scratch wound assay in Matrigel; format: cell-based, human; conditions: MMP inhibitor, 25 µM
Method: The 3D scratch wound assay was performed as described in Meirson et al. Targeting invadopodia-mediated breast cancer metastasis by using ABL kinase inhibitors. Oncotarget 2018; 9: 22158-22183. Briefly, 96 well Image Lock microtiter plates (Essen Bioscience) were coated with 100 μg/ml Matrigel (cat #354234; Corning, New-York, NY, USA). Following overnight incubation at 37° C., MDA-MB-231 cells were plated at a final concentration of 350,000 cells/ml and allowed to adhere for 12-16 h in the presence of Pyk2-PRR or control peptides. Following wounding of the bottom Matrigel-cells layer, a top layer of Matrigel was added to a final concentration of 2 mg/ml and allowed to polymerize for 30 min at 37° C. Pyk2-PRR or control scrambled peptides were then added again in DMEM/10% FBS to a final concentration of 0.1, 1, or 5 μM, with or without the MMP inhibitor GM6001 ([…]). Plates were placed in a 37° C. heated chamber, and images were collected using the IncuCyte® Zoom platform (Essen Bioscience; 20×, NA 0.60, air objective). Phase images were collected every one hour for a total of 12 h using the IncuCyte® acquisition software.

[5] = molecular target: T2, cortactin-SH3 domain (mouse cortactin SH3 domain, GenBank ID U03184; nucleotides 1468-1641) (mouse, UniProt Q60598 490-546, isotopically labeled (15N, 13C and/or 2H) for NMR); test: NMR chemical shift titration (1H,15N-HSQC), unlabeled peptide into 15N-SH3
T2 construct: domain: SH3 domain; also called purified cortactin-SH3
T2 sequence (Q60598 490-546 limits assumed): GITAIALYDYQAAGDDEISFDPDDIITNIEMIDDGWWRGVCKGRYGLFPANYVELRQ

[6] = molecular target: T2, cortactin-SH3 domain (mouse cortactin …); test: NMR chemical shift titration (1H,15N-HSQC)

With `CC(=O)N[C@@H](C(=O)N[C@H](C)C(=O)N[C@H](Cc1ccccc1)C(=O)N[C@H](CCC(N)=O)C(=O)N[C@@H](CCC(=O)O)C(=O)N1CCC[C@H]1C(=O)N1CCC[C@H]1C(=O)N1CCC[C@H]1C(=O)N[C@@H](CCCCN)C(=O)N1CCC[C@H]1C(=O)N[C@@H](CO)C(=O)N[C@@H](CCCNC(=N)N)C(=O)N1CCC[C@H]1C(=O)N[C@@H](CCCCN)C(=O)N[C@@H](Cc1ccc(O)cc1)C(=O)N[C@H](CCCNC(=N)N)C(=O)N1CCC[C@@H]1C(=O)N1CCC[C@@H]1C(=O)N1CCC[C@@H]1C(N)=O)[C@H](C)O` [SEQ ID NO: 9, TAFQEPPPKPSRPKYRPPP] the Kd ([1]; capped Pyk2-PRR2 derivatives, NMR titration isotherm, unit inferred) was 15 ± 2 µM.

In the case of “TAFQEPPPKPSRPKARPPP [Y722A, Pyk2-PRR2 708-726 with Y722A substitution]”, the loss of affinity [1] is reported as 3.5 fold.

Molecule “TAFQEPPPKPSR [Δ720-726 deletion mutant, Pyk2-PRR2 truncated to positions 708-719]” has a loss of affinity [1] of 27 fold.

For “EFTGPPQKPPRLGAQS [Pyk2-PRR3, EFTGPPQKPPRLGAQS]”, the “2D motility (accumulated and Euclidean distances, velocity)” value [2] was “reduced 2D motility; also recorded: minor effect” and the “invadopodia formation and maturation” value [3] was “minor effect”.

`CNC(=O)[C@H](Cc1c[nH]c2ccccc12)NC(=O)[C@@H](CC(=O)NO)CC(C)C` [GM6001, reference compound] was tested, and the ECM invasion [4] was “fully inhibited”.

B1: Pyk2-PRR3 peptide (SEQ ID NO: 2) (peptide)
peptide: EFTGPPQKPPRLGAQS
notes: Unlabeled synthetic peptide as used in the NMR titration
In the case of B1, the Kd [5] is reported as 650 µM.

B2: Tf-tag-Pyk2-PRR2, HAIYPRHTAFQEPPPKPSRPKYRPPP-NH2 (SEQ ID NO: 7 + C-term cap) (peptide)
peptide: HAIYPRHTAFQEPPPKPSRPKYRPPP-NH2
B2 showed a Kd [6] of 8 µM.

B3: Pyk2-PRR2-Tf-tag, Ac-TAFQEPPPKPSRPKYRPPPHRPYIAH (SEQ ID NO: 8 + N-term cap) (peptide)
peptide: Ac-TAFQEPPPKPSRPKYRPPPHRPYIAH
notes: Pyk2-PRR2 (human Pyk2 708-726) followed by a C-terminal tag printed as HRPYIAH, the reverse of the Tf tag
For B3, the Kd [6] was 2 µM.
